Each block holds one molecule with its values, some of them ahead of it.
How the values were obtained:
[1] = target: ニワトリリゾチーム (chicken lysozyme) (chicken) (UniProt P00698); experiment: legend of Figure 7 (antigen binding graph, fluorescence quench titration)
[2] = target: ニワトリリゾチーム (chicken lysozyme) (chicken) (UniProt P00698); experiment: fluorescence quench titration; 200 nM Fab titrated with lysozyme in solution
[3] = target: CD28Ig (human) (UniProt P10747); experiment: ELISA on CD28Ig-coated plates, detected with anti-human kappa conjugate
[4] = target: CD28Ig (human) (UniProt P10747); experiment: legend of Figure 11 (antigen binding graph, ELISA)
[5] = target: ヒトグルタミン酸デカルボキシラーゼ65kDaアイソフォーム (human glutamic acid decarboxylase, GAD65) (human) (UniProt Q05329); experiment: immunoprecipitation of 35S-labelled GAD65 with Protein G-Sepharose; midpoint read by eye
UniProt Q05329, sequence (Q05329 whole entry): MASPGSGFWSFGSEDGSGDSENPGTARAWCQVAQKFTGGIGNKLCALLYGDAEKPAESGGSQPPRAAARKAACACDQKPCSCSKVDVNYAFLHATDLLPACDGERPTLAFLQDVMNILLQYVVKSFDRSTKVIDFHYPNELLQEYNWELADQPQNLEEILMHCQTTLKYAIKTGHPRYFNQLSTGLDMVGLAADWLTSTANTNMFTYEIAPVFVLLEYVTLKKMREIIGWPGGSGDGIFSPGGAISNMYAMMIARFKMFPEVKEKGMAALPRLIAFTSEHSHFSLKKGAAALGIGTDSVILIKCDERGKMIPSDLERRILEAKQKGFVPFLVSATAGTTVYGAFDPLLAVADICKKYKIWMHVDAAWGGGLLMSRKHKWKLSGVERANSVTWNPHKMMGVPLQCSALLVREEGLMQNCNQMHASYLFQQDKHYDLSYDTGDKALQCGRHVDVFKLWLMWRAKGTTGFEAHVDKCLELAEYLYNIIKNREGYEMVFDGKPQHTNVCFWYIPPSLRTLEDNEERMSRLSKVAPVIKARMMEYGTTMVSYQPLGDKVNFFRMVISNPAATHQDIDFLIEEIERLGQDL

UniProt P00698, sequence (P00698 19-147 limits assumed): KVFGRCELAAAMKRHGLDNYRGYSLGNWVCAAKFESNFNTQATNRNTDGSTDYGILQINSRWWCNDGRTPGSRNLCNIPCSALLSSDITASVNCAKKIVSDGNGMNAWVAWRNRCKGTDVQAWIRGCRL

Ka [1]: > 1e+08 M⁻¹
Kd [2]: 23 nM
Molecule: ヒト化D1.3 Fab (humanized D1.3 Fab, anti-chicken lysozyme)

EC50 [3]: 20 nM
Molecule: マウス9.3 Fab (Fab of mouse 9.3 variable domains and human constant domains)

Ka [4]: > 1e+06 M⁻¹
EC50 [3]: 630 nM
B1: ヒト化抗ヒトCD28(Hu9.3)Fabフラグメント (Fab, from another filing, V domains shown)
VH: EVQLVQSGGGLVQPGGSLRLSCAGSGFTFSDYGVHWVRQAPGKGLEWVSAIWAGGGTNYASSVMGRFTISRDNAKNSLYLQMNSLRAEDMAVYYCARDKGYSYYYSMDYWGQGTLVTVSS
VL: DIVMTQSPDSLAVSLGERATINCRASESVEYYVTSLMAWYQQKPGQPPKLLIYAASNVESGVPDRFSGSGSGTNFSLTISSLQAEDVAVYYCQQSRKVPYTFGQGTKLEIKR

EC50 [5]: 0.36 pM
B2: マウスNGAD65 Fabフラグメント (mouse NGAD65 variable domains and constant domains) (Fab, from another filing, V domains shown)
VH: QVQLQQPGAELVKPGASVKMSCKASGYRFSSYNMHWVKQTPGQGLEWIGAIYPRSGDTSYNQKFKGKATLTADKSSSTAYMQLGSLTSEDSAVYYCVRSYDYDAPFAFWGQGTLVTVSA
VL: VLTQTPLSLPVSLGDQASISCRSSQSLEHNNGNTYLNWYLQKPGQSPQLLIYRVSNRFSGGLDRFSGSGSGTDFTLKISRVEAEDLGVYFCLQVTHVPFTFGSGTKLEIKR

— patent JP2011115175A
